# Columns and labels:
# [1] = target: ForJ (Streptomyces formicae); assay: non-reducing SDS-PAGE
# [2] = target: ForJ (Streptomyces formicae); assay: non-reducing SDS-PAGE; remark: listed apart in the source
# [3] = target: ForJ (Streptomyces formicae); assay: mass photometry
# [4] = target: ForJ (Streptomyces formicae); assay: mass photometry; remark: listed apart in the source
substance,measurement,setting,value
ForJ (natural protein),stoichiometry N,[1],2
same,stoichiometry N,[2],4
same,stoichiometry N,[3],4
same,stoichiometry N,[4],2

# Source: publication doi:10.1101/2025.03.04.641395
